The source of these data is patent US20200353078A1 (AstraZeneca / MedImmune, published 2020).

In assay [1] the target is T1, Human IL-33 Flag®His (human).
T1 construct: Mature IL-33 with C-terminal FLAG 10xHis tag, from E. coli; biotinylated via free cysteines where used biotinylated; also called Mature Human IL-33_FH; human IL-33 FH
T1 chain: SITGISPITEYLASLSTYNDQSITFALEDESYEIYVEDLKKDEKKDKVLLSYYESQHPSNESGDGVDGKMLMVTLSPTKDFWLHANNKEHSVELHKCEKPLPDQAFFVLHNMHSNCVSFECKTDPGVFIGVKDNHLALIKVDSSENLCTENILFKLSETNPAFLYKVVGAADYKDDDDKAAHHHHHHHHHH
Briefly: ELISA, biotinylated antigen on streptavidin plate, anti-human IgG HRP. How it is done: (§1) 96-well Greiner polypropylene plates (Greiner, 650201) were used for dilution preparation. Generally, each dilution was prepared in duplicate. IgG dilutions were allowed to block in PBS-M for 1 hour at room temperature before being used directly in ELISA experiments.
(§2) Streptavidin plates (Thermo Scientific, AB-1226) were coated with biotinylated antigen at 0.5 μg/ml in PBS and incubated overnight at 4° C. Plates were washed 3× with PBS and blocked with 300 μl/well blocking buffer (PBS-M) for 1 hour. Plates were washed 1× with PBS and blocked samples added, 50 μl/well for 1 hour at room temperature. […] Plates were washed 3× with PBS-T and developed with TMB, 50 μl/well (Sigma, T0440). The reaction was quenched with 50 μl/well 0.1M H2504 before reading on an EnVision™ plate reader, or similar equipment, at 450 nm.
(§3) Species cross-reactivity of anti-IL-33 antibodies was determined using a plate-based ELISA. Streptavidin plates (Thermo Scientific, AB-1226) were coated with biotinylated antigen at 0.5 μg/ml in PBS. Binding of purified IgG preparations was detected with anti-human IgG HRP (Sigma, A0170).

The target of assay [2] is T2, Cynomolgus IL-33 Flag®His (cynomolgus monkey).
T2 construct: C-terminal FLAG 10xHis tag, E. coli; also called Mature Cynomolugus IL-33; cyno IL-33 FH
T2 chain: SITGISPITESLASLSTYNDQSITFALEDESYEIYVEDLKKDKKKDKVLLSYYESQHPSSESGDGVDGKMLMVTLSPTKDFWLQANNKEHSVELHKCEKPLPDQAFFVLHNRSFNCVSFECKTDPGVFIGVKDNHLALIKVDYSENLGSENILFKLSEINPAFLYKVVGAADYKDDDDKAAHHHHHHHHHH
The assay is described as above. As to the method:
as §1, §2, §3

In assay [3] the target is T3, Mouse IL-33 Flag®His (mouse).
T3 construct: C-terminal FLAG 10xHis tag, E. coli; also called Mature Mouse IL-33_FH; mouse IL-33 FH
T3 chain: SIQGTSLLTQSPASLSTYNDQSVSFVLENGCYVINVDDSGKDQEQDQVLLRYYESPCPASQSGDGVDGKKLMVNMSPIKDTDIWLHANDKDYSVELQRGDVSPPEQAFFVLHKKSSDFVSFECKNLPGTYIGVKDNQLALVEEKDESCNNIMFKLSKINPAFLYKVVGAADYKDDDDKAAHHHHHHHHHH
The description is as above. How it is done:
as §1, §2, §3

The target in assay [4] is T4, Human IL-33 (Axxora/Adipogen AG-40B-0038) (human, UniProt O95760 112-270, limits assumed).
T4 sequence (looked up): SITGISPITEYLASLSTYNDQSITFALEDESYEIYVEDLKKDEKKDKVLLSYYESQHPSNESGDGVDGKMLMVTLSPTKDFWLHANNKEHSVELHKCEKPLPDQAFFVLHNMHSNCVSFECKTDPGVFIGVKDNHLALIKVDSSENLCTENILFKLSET
Briefly: cell-based or functional assay.

The target in assay [5] is T5, Human IL-33 (Axxora/Alexis ALX-522-098) (human, UniProt O95760 112-270).
T5 sequence (looked up): T4 sequence (looked up)
Briefly: cell-based or functional assay.

Assay [6] addresses T6, His10/Avi Cyno IL-33 (cynomolgus monkey).
T6 construct: also called Cynomolgus 10His Avitag IL-33; biotinylated His Avi cynomolgus IL-33
T6 chain: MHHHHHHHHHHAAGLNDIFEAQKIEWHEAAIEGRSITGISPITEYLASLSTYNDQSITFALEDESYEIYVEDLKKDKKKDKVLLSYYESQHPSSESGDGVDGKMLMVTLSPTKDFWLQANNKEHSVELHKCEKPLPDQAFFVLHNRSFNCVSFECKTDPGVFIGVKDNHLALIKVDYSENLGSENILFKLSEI
Briefly: HTRF epitope competition, scFv titrated; competitor DyLight labelled 33_640027 IgG.

Assay [7] deals with T7, His10/Avi Human IL33-01 (human).
T7 construct: Wild type mature IL-33 with N-terminal 10xHis, Avitag and Factor Xa site; biotinylated by BirA on the Avitag where used biotinylated; reduced form unless treated; also called N-terminal His Avi IL-33; His-Avi human IL-33 wild type
T7 chain: T6 chain with K77E, S94N, Q118H, R146M, S147H, F148S, Y177S, G182C, S183T, I193T
Described as above.

Assay [8] concerns the target T6, His10/Avi Cyno IL-33. Briefly: HTRF epitope competition, scFv titrated; competitor DyLight labelled 33v20064 IgG. How it is done:
(§4) This was followed by the addition of 2.5 microlitres of a solution containing 0.8 nM biotinylated human IL-33-01 combined with 0.75 nM streptavidin cryptate detection (Cisbio International, 610SAKLB) for the human assay or a solution containing 4 nM biotinylated cynomolgus IL-33 combined with 1.5 nM streptavidin cryptate detection (Cisbio International, 610SAKLB) for the cynomolgus assay. All dilutions were performed in assay buffer containing 0.8 M potassium fluoride (VWR, 26820.236) and 0.1% bovine serum albumin (BSA, PAA, K05-013) in Dulbeccos PBS (Invitrogen, 14190185). Assay plates were incubated for 1 hour at room temperature and time resolved fluorescence was read at 620 nm and 665 nm emission wavelengths using an EnVision plate reader (Perkin Elmer). Data were analysed by calculating the 665/620 nm ratio followed by the % Delta F values for each sample. The 665/620 nm ratio was used to correct for sample interference using Equation 1. The % Delta F for each sample was then calculated using Equation 2. The negative control (non-specific binding) was defined by replacing biotinylated IL-33 combined with streptavidin cryptate detection with streptavidin cryptate detection only. The % Delta F values were subsequently used to calculate % specific binding as described in Equation 3.
(§5) Unique scFv were expressed again in bacteria and purified by affinity chromatography (as described in WO01/66754). Purified anti-IL-33 antibody samples were tested for potency of inhibition by competing a dilution series of the purified preparation against DyLight labelled 33v20064 IgG or DyLight labelled 33_640027 IgG for binding to biotinylated His Avi IL33-01, biotinylated His Avi IL33-11 or biotinylated His Avi cynomolgus IL-33. Methods are as described in the previous section.

The target of assay [9] is T8, His10/Avi Human IL33-11 (human).
T8 construct: C208S, C259S mutant (already in the entry), N-terminal His10/Avitag; also called His-Avi mutant IL-33; SCCS
T8 chain: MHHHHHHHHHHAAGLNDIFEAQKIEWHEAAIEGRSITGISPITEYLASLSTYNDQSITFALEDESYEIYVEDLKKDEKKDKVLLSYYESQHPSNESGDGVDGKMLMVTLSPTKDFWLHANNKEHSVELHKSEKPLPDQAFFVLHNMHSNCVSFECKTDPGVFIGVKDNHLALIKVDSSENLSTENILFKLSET
The assay is described as above. As to the method: as §4, §5

Assay [10] concerns the target T7, His10/Avi Human IL33-01. The assay is described as above. As to the method: as §4, §5
The target in assay [11] is T7, His10/Avi Human IL33-01. Briefly: HTRF epitope competition, IgG titrated; competitor DyLight labelled 33_640117 IgG; overnight. How it is done:
(§6) As the epitope competition assay utilising 33_640027 reached its limit of sensitivity, an assay using 33_640117 was used for testing purified scFv samples. The assay was essentially as described for the 33v20064 competition assay with the following modifications: 2.5 nM DyLight labelled 33_640117 was prepared and 2.5 microlitres added to the assay plates. This was followed by the addition of 2.5 microlitres of a solution containing 0.12 nM biotinylated human IL-33-01 combined with 0.75 nM streptavidin cryptate detection (Cisbio International, 610SAKLB) for the human assay or a solution containing 0.24 nM biotinylated cynomolgus IL-33 combined with 1.5 nM streptavidin cryptate detection (Cisbio International, 610SAKLB) for the cynomolgus assay. Fluorescence was read after one hour and overnight incubation.
(§7) The ability of anti-IL-33 antibodies to inhibit the binding of biotinylated His Avi human IL-33 or cynomolgus His Avi IL-33 to the DyLight labelled 33_640117 IgG was assessed in a biochemical HTRF® (Homogeneous Time-Resolved Fluorescence, Cisbio International) competition assays as described above.

Assay [12] has as its target T6, His10/Avi Cyno IL-33. Briefly: HTRF epitope competition, IgG titrated; competitor DyLight labelled 33_640117 IgG; 1 hour. How it is done: as §6, §7
Assay [13] addresses T7, His10/Avi Human IL33-01. The assay is described as above. How it is done: as §6, §7
The target of assay [14] is T9, Full-length human IL-33 (amino acids 1-270), HEK293-EBNA cell lysate (human, UniProt O95760 1-270).
T9 sequence (looked up): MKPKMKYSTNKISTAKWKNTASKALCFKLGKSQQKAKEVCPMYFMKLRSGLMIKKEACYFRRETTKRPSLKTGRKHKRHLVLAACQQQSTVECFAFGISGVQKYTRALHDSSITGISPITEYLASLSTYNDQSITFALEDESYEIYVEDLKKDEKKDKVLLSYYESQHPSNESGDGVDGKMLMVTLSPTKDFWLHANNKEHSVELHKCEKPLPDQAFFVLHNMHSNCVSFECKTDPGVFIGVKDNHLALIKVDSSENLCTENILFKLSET
Briefly: cell-based or functional assay.

Substitutions are numbered along the chain they refer to.

B1: IL330149 IgG (antibody, V domains shown)
VH: EVQLLESGGGLVQPGGSLRLSCAASGFTFSSYAMSWVRQAPGKGLEWVSAISGSGGSTYYADSVKGRFTISRDNSKNTLYLQMNSLRAEDTAVYYCVRTLAYSTSWFFDYWGRGTLVTVSS
VL: SYELTQPPAVSVSPGQTARITCSGDALPKKYAYWYQQKSGQAPVLVIYEDAKRPSGIPERFSGSSSGTMATLTVSGAQVEDEADYYCYSTDSSGPVFGGGTKLTVL
notes: IgG1 or IgG1-TM; also called IL33149
For B1, the EC50 was 0.23 nM in assay [1], 0.35 nM in assay [2] and 0.17 nM in assay [3]. Further, in assay [4], the “IC50, Mast cell IL-6 production” value was 298 nM.

B2: IL330099 IgG (antibody, V domains shown)
VH: QVQLQQSGAEVKKPGASVKVSCKASGYTFTSFYMNWVRQAPGQGLEWMGIISPRGGTTSYAQNFQGRVTMTRDTSTSTVYMELSGLRSDDTAVYYCATESFYYGSGTYSGDYYLYSGMADWGKGTLVTVSS
VL: SSELTQDPAVSAALGQTVRITCQGDSLRSYYASWYQQKPGQAPVLVIYGKNDRPSGIPDRFSGSSSGNTASLTITGAQAEDEADYYCNSRDSSGNHVVFGGGTKLTVL
notes: IgG1 or IgG1-TM
With B2, the EC50 in assay [1] was determined as 0.4 nM; in [2], 0.35 nM; in assay [3], 0.38 nM. Moreover, in assay [4], the “IC50, Mast cell IL-6 production” value was 1220 nM.

B3: IL330107 IgG (antibody, V domains shown)
VH: QMQLVQSGGGVVQPGGSLRLSCAASGFTFSSYAMSWVRQAPGKGLEWVSAISGSGGSTYYADSVKGRFTISRDNSKNTLYLQMNSLRAEDTAVYYCAKPFPSYWYFDLWGKGTLVTVSS
VL: SYVLTQPPSVSVSPGQTARITCSGDALPKQYAYWYQQKPGQAPVLVIYKDSERPSGIPERFSGSSSGTTVTLTISGVQAEDEADYYCQSADSSGTYRVFGGGTQLTVL
notes: IgG1 or IgG1-TM
Turning to B3, the EC50 came out at 0.86 nM in [1], 1.09 nM in [2] and 0.83 nM in [3]. For the same molecule, the “IC50 (geomean), Mast cell IL-6 production” value in [4] is 283 nM. Also, the “IC50, TF-1 proliferation” value in assay [5] worked out at 94 nM.

B4: 33_640047 scFv (scFv, V domains shown)
VH: EVQLLESGGGLVQPGGSLRLSCAASGFTFSSYAMSWVRQAPGKGLEWVSAISGSGGSTYYADSVKGRFTISRDNSKNTLYLQMNSLRAEDTAVYYCTRLKFMQLWGGGLRYPFGYWGQGTMVTVSS
VL: SYVLTQPPSVSVSPGQTASITCSGERMGDKYAAWYQQKPGQSPVLVIYQDTKRPSGIPERFSGSNSGNTATLTISGTQAMDEADYYCQVWDSSTGVFGGGTKVTVL
notes: Single chain Fv; also called ZZ1F7P-E01
Take B4: the IC50 came out at 8.8 nM in [6]; 2.3 nM in [7]; 2.7 nM in assay [8]; 0.5 nM in assay [9]; 0.4 nM in assay [10].

B5: 33v20064 IgG1 (antibody, V domains shown)
VH: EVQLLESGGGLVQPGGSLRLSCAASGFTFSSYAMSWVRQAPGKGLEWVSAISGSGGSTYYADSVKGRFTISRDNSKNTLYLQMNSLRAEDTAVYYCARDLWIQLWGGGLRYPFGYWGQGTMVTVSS
VL: B4 VL with S1L, Y2P, T17K, V44I, A79D
notes: IgG1; also called ZZ1EBX-E05
For the molecule B5, the IC50 turned out to be 689 nM in assay [11], 788 nM in assay [12] and 150 nM in assay [13]. For the same molecule, in assay [14], the “IC50, Huvec IL-8 assay vs. full length IL-33 cell lysate” value came to 185 nM.
